Assay results published in patent US20230382819A1, “PROCESSES FOR SYNTHESIS OF ALPHA-EMITTING RADIOPHARMACEUTICALS” (priority 2020, published 2023).

Experiments:
[1] = mouse, in vivo
Method: Radiochemical synthesis and characterization. Complexation was achieved by reacting DOTATATE (5-10 μg in 5-10 μL water from 1.0 mg/mL solution) with ^225Ac(NO3)3 (3.4 MBq) that was diluted in 100 μL of water containing 10 μL of 20% L-ascorbic acid. The pH was adjusted to 5.5-6 using 1 M Tris buffer (10-12 μL), and then incubated at 60° C. for 1 h (FIG. 1). […] Animal studies. An equal number of male and female subjects were assigned to each experimental cohort. All the animals were purchased from Charles River (Wilmington, MA). Injected Activity Measurement. […] Activities in syringes were measured using the Atomlab 500 Dose Calibrator (Biodex). Per the manufacturer's recommendations, measurements were made for 2 mins using dial number 38.2 and the assumption that ^225Ac and daughters were in secular equilibrium. […] The α activity in μCi of each radionuclide was determined by fitting each peak with a multi-Gaussian fit and integrating to determine the net number of counts while incorporating the acquisition time. The net administered activities were determined by subtraction of the residual activity in the catheter and syringe from the dose calibrator measured pre-injection activity. […] Then, mice were weighed twice per week and monitored for 5 months for signs of distressed behavior, followed by euthanasia and tissue collection. […]

[2] = Radiation dosimetry and clearance kinetics from BD data; type: in vivo; conditions: for Decay half-life, Teff: ^225Ac
Method: (§1) Radiochemical synthesis and characterization. Complexation was achieved by reacting DOTATATE (5-10 μg in 5-10 μL water from 1.0 mg/mL solution) with ^225Ac(NO3)3 (3.4 MBq) that was diluted in 100 μL of water containing 10 μL of 20% L-ascorbic acid. The pH was adjusted to 5.5-6 using 1 M Tris buffer (10-12 μL), and then incubated at 60° C. for 1 h (FIG. 1). […] Animal studies. An equal number of male and female subjects were assigned to each experimental cohort. All the animals were purchased from Charles River (Wilmington, MA). Injected Activity Measurement. […] Activities in syringes were measured using the Atomlab 500 Dose Calibrator (Biodex). Per the manufacturer's recommendations, measurements were made for 2 mins using dial number 38.2 and the assumption that ^225Ac and daughters were in secular equilibrium. Activity was injected into each mouse via tail-vein catheter (50 μL dead volume). […] The α activity in μCi of each radionuclide was determined by fitting each peak with a multi-Gaussian fit and integrating to determine the net number of counts while incorporating the acquisition time. The net administered activities were determined by subtraction of the residual activity in the catheter and syringe from the dose calibrator measured pre-injection activity. Spectra for activity calculations were acquired ≥24 h post-radiosynthesis ensuring that ^225Ac and daughters were in secular equilibrium (see Robertson, A. K. H.; et al. Phys Med Biol 2017, 62 (11), 4406-4420). Maximum tolerated activity/toxicity. […] Then, mice were weighed twice per week and monitored for 5 months for signs of distressed behavior, followed by euthanasia and tissue collection. Blood urea nitrogen (BUN), creatinine, alkaline phosphatase (ALKP), alanine aminotransferase (ALT) and aspartate aminotransferase (AST) content in serum were analyzed using commercial IDEXX CLIP (IDEXX, Main, USA) and read by an automated biochemical analyzer (IDEXX Catalyst DX, Main, USA) following the manufacturer's protocol. Bone, bone marrow, brain, cecum, duodenum, kidney, liver, lymph nodes, muscle, pancreas, salivary gland, small intestine, and spleen were harvested and fixed in 10% formalin. Bone was decalcified in 14% ethylene diaminetetraacetic acid (EDTA) solution after fixation in formalin. All tissues were embedded in paraffin, sectioned (4-6 μm thickness), stained with hematoxylin and eosin (H&E), and examined by the veterinary pathologist (R.E.), in a blind manner. Biodistribution (BD). […] Groups of animals were euthanized at 24, 48 and 96 h p.i., n=4 mice per time point, and tissues were removed and weighed. […] Radiation dosimetry. Dosimetry calculations were performed as previously described. […] The β decay branching ratio for ^217At to ^217Rn is only 0.01% therefore it was assumed that all decays of ^217At were by […] to ^213Bi. The branching ratios for decay of ^213Bi by 98% to ^213Po and by 2% to ^209T1 were accounted for in the calculation. Due to the relatively low LET and the small dimensions of the target tissues, the β emissions from ^217At, ^213Bi, ^209T1 and ^209Pb were assumed negligible and not included in the calculations (see Bolch, W. E.; J Nucl Med 2009, 50 (3), 477-84).
Dosimetry calculations were performed using the generalized internal dosimetry schema of the MIRD Committee for α-particle emitters. According to MIRD #21, the absorbed radiation dose due to particle type x, Dx(rT, TD) is the mean energy imparted to target tissue rT per unit tissue mass, defined by Equation 1: […]
where A(rS, TD) is the total number of nuclear transitions in the […] (accumulated activity), Δi^x is the mean energy emitted per nuclear transition, φ(rT←rS; Ei^x) is the fraction of energy emitted per nuclear transition in the source region that is absorbed in the target region by the i^th emission that is emitted with initial energy E, k is a conversion factor, and M(rT) is the mass of the target tissue.

[3] = Maximum tolerated activity/toxicity in non-tumor bearing mice; type: in vivo
Method: as §1, with “(BD). BD studies for ^225Ac-DOTATATE were performed using groups of normal non-tumor bearing BALB/c mice.” for “(BD).”
Anti-tumor efficacy. Efficacy studies were performed using NCI-H69 human SCLC and NCI-H727 lung carcinoid xenograft tumors in SCID mice. […] Animals were euthanized when the experimental endpoint of 2000 mm^3 tumor volume was reached. Any euthanasia performed prior to reaching 2000 mm^3 tumor volume were due to clinical endpoints, such as 20% weight loss, tumor ulceration, hunched back, scruffy fur (no longer grooming), lethargic or slow moving. Histology and immunohistochemistry (IHC). […]

C[C@@H](O)[C@H](NC(=O)[C@@H]1CSSC[C@H](NC(=O)[C@@H](Cc2ccccc2)NC(=O)CN2CCN(CC(=O)O)CCN(CC(=O)O)CCN(CC(=O)O)CC2)C(=O)N[C@@H](Cc2ccc(O)cc2)C(=O)N[C@H](Cc2c[nH]c3ccccc23)C(=O)N[C@@H](CCCCN)C(=O)N[C@@H]([C@@H](C)O)C(=O)N1)C(=O)O [^225Ac-DOTATATE, metal not drawn]
clearance of activity from the tissues [1]: largely cleared | clearance route [1]: primarily cleared by the renal route, with some hepatic clearance | Decay half-life, Teff ([2]; Brain): 67.296 h | Decay half-life, Teff ([2]; Heart): 1732.87 h | Decay half-life, Teff ([2]; Lung): 53.318 h | Decay half-life, Teff ([2]; Muscle): 141.46 h | Decay half-life, Teff ([2]; Pancreas): 115.52 h | Decay half-life, Teff ([2]; Salivary): 90.019 h | Decay half-life, Teff ([2]; Skin): 75.343 h | Decay half-life, Teff ([2]; Spleen): 111.8 h | calculated total absorbed dose ([2]; mouse, in vivo): minimal | survival ([3]; all dose levels): all animals survived to 5-months p.i. | treatment related pathologic changes in other studied organs (not kidney) ([3]; bone, bone marrow, brain, cecum, duodenum, liver, lymph nodes, muscle, pancreas, salivary gland, small intestine, spleen): None and no treatment related damage | ALKP among the cohorts (ANOVA and Dunnett's test) ([3]; mouse, in vivo): no significant differences | ALT among the cohorts (ANOVA and Dunnett's test) ([3]; mouse, in vivo): no significant differences | AST among the cohorts (ANOVA and Dunnett's test) ([3]; mouse, in vivo): no significant differences | Liver enzymes ([3]; mouse, in vivo): normal | acute kidney damage by pathology ([3]; mouse, in vivo): no acute kidney damage
